Assay [1] deals with T1, MRS fragment 7 (660~860 aa) (human, UniProt P56192 660-860).
T1 construct: not shown: Myc linked to the N-terminus
T1 sequence: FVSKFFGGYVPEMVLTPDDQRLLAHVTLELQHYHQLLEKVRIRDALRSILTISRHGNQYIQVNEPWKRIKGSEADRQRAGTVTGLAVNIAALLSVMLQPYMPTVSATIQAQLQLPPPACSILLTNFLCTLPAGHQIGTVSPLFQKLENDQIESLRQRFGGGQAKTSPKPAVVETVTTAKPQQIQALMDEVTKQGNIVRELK
Kind of assay: western blot of lysate of transfected H460 cells. The protocol:
(§1) Then, 2 μg of the cloned vector DNA were transfected into H460 cells using Turbofect (Thermo) according to the manufacturer's instructions. After 24 hours, cells were harvested and subjected to western blot. 1E8 antibody and 8A12 antibody were diluted 1:5000 (0.2 μg/mL) as the primary antibody.
Then, western blot was performed in the same manner as described above.

Assay [2] has as its target T2, AIMP3 (aminoacyl tRNA synthetase complex-interacting multifunctional protein 3) (Homo sapiens (Human), UniProt O43324 1-174, limits assumed).
T2 construct: How the AIMP3-alone protein for SPR and screening was made is not described; also called p18
T2 sequence: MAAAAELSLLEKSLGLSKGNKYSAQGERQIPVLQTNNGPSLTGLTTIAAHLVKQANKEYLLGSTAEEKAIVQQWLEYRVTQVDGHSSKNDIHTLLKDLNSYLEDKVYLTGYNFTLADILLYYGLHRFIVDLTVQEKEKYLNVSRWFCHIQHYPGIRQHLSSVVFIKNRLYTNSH
Description: SPR, CM5 chip coated with AIMP3, antibody flowed at 0.20 to 200 nM. The method, then:
Surface plasmon resonance (SPR) experiments were carried out using 1E8 and 8A12 antibodies and MRS+AIMP3 protein obtained in Example 1.
CM5 chips were coated with MRS+AIMP3 or AIMP3 proteins and 1E8 or 8A12 antibodies were flowed at various concentrations to measure the degree of binding reaction with the proteins. Samples or buffers were injected for 8 minutes at a flow rate of 30 μl/min and washed for 20 minutes.
A general note: SPR reads the build-up and loss of mass on a sensor chip optically.

The target in assay [3] is T3, MRS fragment 1 (1~266 aa).
T3 construct: Expressed in H460 cells from pcDNA3; also called lane 1
T3 single chain: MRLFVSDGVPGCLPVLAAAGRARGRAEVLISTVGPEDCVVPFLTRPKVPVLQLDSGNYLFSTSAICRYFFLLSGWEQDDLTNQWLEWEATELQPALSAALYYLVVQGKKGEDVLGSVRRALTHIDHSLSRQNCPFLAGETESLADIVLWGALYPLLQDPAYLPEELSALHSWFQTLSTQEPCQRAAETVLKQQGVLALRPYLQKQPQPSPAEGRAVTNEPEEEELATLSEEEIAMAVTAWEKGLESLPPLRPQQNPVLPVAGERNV
Kind of assay: western blot of lysates of H460 cells transfected with Myc-tagged MRS fragments. The protocol:
(§2) Six fragments of different lengths and positions were prepared based on the GST, catalytic domain, and tRNA binging domains of the MRS protein, and MRS protein and each of the MRS fragments were cloned into pcDNA3 vector (EV). At this time, since Myc protein is linked to the N-terminus of MRS protein, Myc protein was used as a control.
as §1
A general note: A western blot detects proteins with antibodies after separation by electrophoresis.

Assay [4] concerns the target T4, MRS fragment 2 (267~417 aa).
T4 construct: Expressed in H460 cells from pcDNA3; also called lane 2
T4 single chain: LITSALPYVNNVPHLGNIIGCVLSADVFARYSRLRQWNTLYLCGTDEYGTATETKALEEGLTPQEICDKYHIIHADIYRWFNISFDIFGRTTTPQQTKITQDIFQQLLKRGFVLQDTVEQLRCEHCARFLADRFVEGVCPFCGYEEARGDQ
The assay is described as above. The protocol: as §2, §1

For assay [5], the target named is T5, MRS fragment 3 (267~597 aa).
T5 construct: Expressed in H460 cells from pcDNA3; also called lane 3
T5 single chain: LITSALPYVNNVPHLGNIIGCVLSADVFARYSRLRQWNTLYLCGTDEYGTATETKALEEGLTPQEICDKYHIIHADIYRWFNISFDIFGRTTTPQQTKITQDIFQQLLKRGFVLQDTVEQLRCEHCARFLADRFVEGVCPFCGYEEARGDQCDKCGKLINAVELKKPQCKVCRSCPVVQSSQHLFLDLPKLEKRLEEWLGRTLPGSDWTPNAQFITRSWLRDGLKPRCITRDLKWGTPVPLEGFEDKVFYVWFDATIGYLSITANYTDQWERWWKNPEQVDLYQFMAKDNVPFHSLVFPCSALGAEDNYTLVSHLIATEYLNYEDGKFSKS
Described as above. The protocol: as §2, §1

Assay [6] has as its target T6, MRS fragment 4 (1~597 aa).
T6 construct: Expressed in H460 cells from pcDNA3; also called lane 4
T6 single chain: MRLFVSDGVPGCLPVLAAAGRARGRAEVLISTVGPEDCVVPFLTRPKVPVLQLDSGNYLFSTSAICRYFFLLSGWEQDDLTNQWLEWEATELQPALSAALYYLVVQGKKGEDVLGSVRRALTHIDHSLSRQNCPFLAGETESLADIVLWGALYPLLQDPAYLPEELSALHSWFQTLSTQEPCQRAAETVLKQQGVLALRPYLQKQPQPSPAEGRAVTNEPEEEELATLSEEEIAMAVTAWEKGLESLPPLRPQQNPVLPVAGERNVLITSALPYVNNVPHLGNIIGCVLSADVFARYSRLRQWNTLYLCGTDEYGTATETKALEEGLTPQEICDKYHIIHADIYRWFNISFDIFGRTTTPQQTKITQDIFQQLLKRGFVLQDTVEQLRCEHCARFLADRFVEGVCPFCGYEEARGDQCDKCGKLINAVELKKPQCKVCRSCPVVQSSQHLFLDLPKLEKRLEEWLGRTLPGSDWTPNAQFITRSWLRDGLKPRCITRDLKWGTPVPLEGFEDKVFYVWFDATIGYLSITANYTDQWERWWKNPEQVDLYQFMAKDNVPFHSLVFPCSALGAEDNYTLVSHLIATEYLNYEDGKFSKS
The assay is described as above. The protocol:
as §2, §1

B1: 1E8 antibody (1E8 IgG) (antibody, V domains shown)
VH: DVKLQESGPGLVNPSQSLSLTCTVTGYSITSDYAWNWIRQFPGNKLEWMGYISYSGRTSYKSSLKSRISITRDTSKNQFFLELNSVTTEDTATYYCARDYGNFVGYFDVWGAGTTVTVSS
VL: DIVMTQSPSSLAVSVGEKVTMSCKSSQSLLYSSNQKNYLAWYQQKPGQSPKLLIYWASTRESGVPDRFTGSGSGTEFTLTISSVKAEDLAVYYCQQYYSYPTFGGGTKLEIKA
notes: Mouse monoclonal from hybridoma clone 1E8; also called IE8; anti-MRS antibody (1E8)
As to B1, the binding result in assay [1] was “no binding (tested: 1:5000 (0.2 ug/mL))”; in assay [2] it was “no binding (tested: 200 nM)”; in assay [3] it was “no binding (tested: 0.2 µg/mL (1:5000, from paragraph 148))”; in assay [4], “no binding (tested: 0.2 µg/mL (1:5000, from paragraph 148))”; in assay [5], “no binding (tested: 0.2 µg/mL (1:5000, from paragraph 148))”; in assay [6], “no binding (tested: 0.2 µg/mL (1:5000, from paragraph 148))”.

B2: 8A12 antibody (8A12 IgG) (antibody, V domains shown)
VH: DVKLQESGPGLVKPSQSLSLTCTVTGYSITSEYAWTWIRQFPGNKLEWMGYINYNGNTNLNPSLKSRISIIRDTSKNQFFLQLNSVTTEDTATYYCARSLWPRGWFAYWGQGTLVTVSA
VL: DIQMTQSPSSMYASLGERVTITCKASQDINSYLSWFQQKPGKSPKTLMYRANRLVDGVPSRFSGSGSGQDYSLTISSLEYEDMGIYYCLQYDEFPRTFGGGTKLEIKA
notes: Mouse monoclonal from hybridoma clone 8A12; also called 8Al2; anti-MRS antibody (8A12)
Regarding B2, the binding result in assay [1] is “no binding (tested: 1:5000 (0.2 ug/mL))”; in assay [2] it was “no binding (tested: 200 nM)”; in assay [3], “no binding (tested: 0.2 µg/mL (1:5000, from paragraph 148))”; in assay [4], “no binding (tested: 0.2 µg/mL (1:5000, from paragraph 148))”; in assay [5], “no binding (tested: 0.2 µg/mL (1:5000, from paragraph 148))”; in assay [6], “no binding (tested: 0.2 µg/mL (1:5000, from paragraph 148))”.

The values above are taken from patent publication US20210130491A1 (ONCOTAG DIAGNOSTICS, published 2021).
